Measurements as given in publication PMC3207847, “Characterization of a Novel Type of HIV-1 Particle Assembly Inhibitor Using a Quantitative Luciferase-Vpr Packaging-Based Assay” (PLoS ONE, 2011).

Molecular target: HIV-1 Gag precursor Pr55Gag, full-length wild type (HIV-1) (UniProt P03348)
Assay: co-sedimentation

| Substance | copies of Gag per LucVpr molecule in VLP (copies of Gag per LucVpr molecule) | copies of Gag per Vpr molecule in VLP (copies of Gag per Vpr molecule) |
| --- | --- | --- |
| luciferase-Vpr fusion protein (LucVpr) (from UniProt P05928 1-96) (natural protein) | 4.92 | – |
| oligohistidine-tagged HIV-1 Vpr protein (from UniProt P05928 1-96) (natural protein) | – | 5.6 |
